The source of these data is PMC8502153, “Two adjacent C-terminal mutations enable expression of aryl-alcohol oxidase from Pleurotus eryngii in Pichia pastoris” (Applied Microbiology and Biotechnology, 2021).

Data set [1] addresses T1, PeAAO1 (Pleurotus eryngii, UniProt O94219, V367A/K583E/Q584R).
T1 construct: gene aao; secreted glycoprotein from P. pastoris X-33 (codon-optimised gene in pPICZA); signal peptide removed; theoretical 61 kDa, about 100 kDa on SDS-PAGE, 70 kDa deglycosylated; only mutants expressed (ER, NER, AER)
The data set is described as follows: flavin absorption spectrum; FAD released on heat denaturation. The class given is binding. To be noted: non-covalently bound; absorbance maxima 463 and 383 nm.

Data set [2] addresses T2, PeAAO1 (Pleurotus eryngii, UniProt O94219, K583E/Q584R).
T2 construct: gene aao; secreted glycoprotein from P. pastoris X-33 (codon-optimised gene in pPICZA); signal peptide removed; theoretical 61 kDa, about 100 kDa on SDS-PAGE, 70 kDa deglycosylated; only mutants expressed (ER, NER, AER)
Described as above. Format: binding. To be noted: non-covalently bound; absorbance maxima 463 and 383 nm.

In data set [3] the target is T3, PeAAO1 (Pleurotus eryngii, UniProt O94219, D361N/K583E/Q584R).
T3 construct: gene aao; secreted glycoprotein from P. pastoris X-33 (codon-optimised gene in pPICZA); signal peptide removed; theoretical 61 kDa, about 100 kDa on SDS-PAGE, 70 kDa deglycosylated; only mutants expressed (ER, NER, AER)
The description is as above. The class given is binding. To be noted: non-covalently bound; absorbance maxima 463 and 383 nm.

Substrate in data set [4]: COc1ccc(CO)cc1OC
Nature of the data set: purified protein. To be noted: 100 mM sodium phosphate pH 6, 25 °C, O2 as co-substrate, glycosylated enzyme. Format: biochemical, Pleurotus eryngii.

Turning to `Cc1cc2nc3c(=O)[nH]c(=O)nc-3n(C[C@H](O)[C@H](O)[C@H](O)COP(=O)(O)OP(=O)(O)OC[C@H]3O[C@@H](n4cnc5c(N)ncnc54)[C@H](O)[C@@H]3O)c2cc1C` [FAD], the “flavin absorption spectrum; FAD released on heat denaturation” value in data set [1], in data set [2] and in data set [3] was “calculated based on absorbance of the released FAD after heat precipitation of the apoprotein” throughout.

B1: PeAAO1 (Pleurotus eryngii; K583E/Q584R) (protein)
chain: ADFDYVVVGAGNAGNVVAARLTEDPDVSVLVLEAGVSDENVLGAEAPLLAPGLVPNSIFDWNYTTTAQAGYNGRSIAYPRGRMLGGSSSVHYMVMMRGSTEDFDRYAAVTGDEGWNWDNIQQFVRKNEMVVPPADNHNTSGEFIPAVHGTNGSVSISLPGFPTPLDDRVLATTQEQSEEFFFNPDMGTGHPLGISWSIASVGNGQRSSSSTAYLRPAQSRPNLSVLINAQVTKLVNSGTTNGLPAFRCVEYAEQEGAPTTTVCAKKEVVLSAGSVGTPILLQLSGIGDENDLSSVGIDTIVNNPSVGRNLSDHLLLPAAFFVNSNQTFDNIFRDSSEFNVDLDQWTNTRTGPLTALIANHLAWLRLPSNSSIFQTFPDPAAGPNSAHWETIFSNQWFHPAIPRPDTGSFMSVTNALISPVARGDIKLATSNPFDKPLINPQYLSTEFDIFTMIQAVKSNLRFLSGQAWADFVIRPFDPRLRDPTDDAAIESYIRDNANTIFHPVGTASMSPRGASWGVVDPDLKVKGVDGLRIVDGSILPFAPNAHTQGPIYLVGERGADLIKADQ
notes: secreted glycoprotein from P. pastoris X-33 (codon-optimised gene in pPICZA); signal peptide removed; theoretical 61 kDa, about 100 kDa on SDS-PAGE, 70 kDa deglycosylated; only mutants expressed (ER, NER, AER)
On to B1, for which, in data set [4], the Km (commonly the concentration of substrate that gives half-maximal velocity) was 549.0 ± 12.6 µM; the kcat (as a rule, the number of substrate molecules converted per active site and unit of time at saturation) came to 54.9 ± 0.02 s⁻¹; the kcat/Km (in general, the second-order rate constant that governs catalysis at low substrate concentration) is 100000 M⁻¹ s⁻¹.

B2: PeAAO1 (Pleurotus eryngii; D361N/K583E/Q584R) (protein)
chain: ADFDYVVVGAGNAGNVVAARLTEDPDVSVLVLEAGVSDENVLGAEAPLLAPGLVPNSIFDWNYTTTAQAGYNGRSIAYPRGRMLGGSSSVHYMVMMRGSTEDFDRYAAVTGDEGWNWDNIQQFVRKNEMVVPPADNHNTSGEFIPAVHGTNGSVSISLPGFPTPLDDRVLATTQEQSEEFFFNPDMGTGHPLGISWSIASVGNGQRSSSSTAYLRPAQSRPNLSVLINAQVTKLVNSGTTNGLPAFRCVEYAEQEGAPTTTVCAKKEVVLSAGSVGTPILLQLSGIGDENDLSSVGIDTIVNNPSVGRNLSDHLLLPAAFFVNSNQTFDNIFRNSSEFNVDLDQWTNTRTGPLTALIANHLAWLRLPSNSSIFQTFPDPAAGPNSAHWETIFSNQWFHPAIPRPDTGSFMSVTNALISPVARGDIKLATSNPFDKPLINPQYLSTEFDIFTMIQAVKSNLRFLSGQAWADFVIRPFDPRLRDPTDDAAIESYIRDNANTIFHPVGTASMSPRGASWGVVDPDLKVKGVDGLRIVDGSILPFAPNAHTQGPIYLVGERGADLIKADQ
notes: as for B1
Turning to B2, in data set [4], the Km worked out at 546.7 ± 5.8 µM, the kcat worked out at 68.2 ± 0.05 s⁻¹ and the kcat/Km is 125000 M⁻¹ s⁻¹.

B3: PeAAO1 (Pleurotus eryngii; K583E/Q584R/V367A) (protein)
chain: ADFDYVVVGAGNAGNVVAARLTEDPDVSVLVLEAGVSDENVLGAEAPLLAPGLVPNSIFDWNYTTTAQAGYNGRSIAYPRGRMLGGSSSVHYMVMMRGSTEDFDRYAAVTGDEGWNWDNIQQFVRKNEMVVPPADNHNTSGEFIPAVHGTNGSVSISLPGFPTPLDDRVLATTQEQSEEFFFNPDMGTGHPLGISWSIASVGNGQRSSSSTAYLRPAQSRPNLSVLINAQVTKLVNSGTTNGLPAFRCVEYAEQEGAPTTTVCAKKEVVLSAGSVGTPILLQLSGIGDENDLSSVGIDTIVNNPSVGRNLSDHLLLPAAFFVNSNQTFDNIFRDSSEFNADLDQWTNTRTGPLTALIANHLAWLRLPSNSSIFQTFPDPAAGPNSAHWETIFSNQWFHPAIPRPDTGSFMSVTNALISPVARGDIKLATSNPFDKPLINPQYLSTEFDIFTMIQAVKSNLRFLSGQAWADFVIRPFDPRLRDPTDDAAIESYIRDNANTIFHPVGTASMSPRGASWGVVDPDLKVKGVDGLRIVDGSILPFAPNAHTQGPIYLVGERGADLIKADQ
notes: as for B1
On to B3, for which, in data set [4], the Km is on record as 541.9 ± 6.4 µM, the kcat came to 58.5 ± 0.03 s⁻¹ and the kcat/Km was found to be 108000 M⁻¹ s⁻¹.
